Assays:
Test in all cases: cell-based or functional assay
[1] = biological target: APOBEC3G mutant P129A, C-terminal myc-tagged (human) (UniProt Q9HC16)
[2] = biological target: APOBEC3G mutant D128K, C-terminal myc-tagged (human)
[3] = biological target: APOBEC3G mutant P129F, C-terminal myc-tagged (human) (UniProt Q9HC16)
[4] = biological target: APOBEC3G mutant P129D, C-terminal myc-tagged, expressed from pAPO3G-P129D (human) (UniProt Q9HC16)

## HIV-1 Vif (virion infectivity factor), expressed from pC-Help
[1]
  Inhibition HIV-1 (%) (viral inhibition, HDV-EGFP single-cycle infectivity in the presence of Vif): 68%
[2]
  Inhibition HIV-1 (%) (viral inhibition, HDV-EGFP single-cycle infectivity in the presence of Vif): 83%
[3]
  Inhibition HIV-1 (%) (viral inhibition, HDV-EGFP single-cycle infectivity in the presence of Vif): 79%
[4]
  GFP-positive cells (relative to wild type APOBEC3G with pcHelp set to 100%): < 10%
  Inhibition HIV-1 (%) (viral inhibition, HDV-EGFP single-cycle infectivity in the presence of Vif): 94%

## HIV-2 Vif (HIV-2Rod)
[1]
  Inhibition HIV-2 (%) (viral inhibition, HDV-EGFP single-cycle infectivity in the presence of Vif): 77%
[2]
  Inhibition HIV-2 (%) (viral inhibition, HDV-EGFP single-cycle infectivity in the presence of Vif): 42%
[3]
  Inhibition HIV-2 (%) (viral inhibition, HDV-EGFP single-cycle infectivity in the presence of Vif): 81%
[4]
  GFP-positive cells (relative to wild type APOBEC3G with pcHelp set to 100%): < 10%
  Inhibition HIV-2 (%) (viral inhibition, HDV-EGFP single-cycle infectivity in the presence of Vif): 95%
